{"source": "patent US20210071139A1", "about": "(published 2021)", "binders": {"B1": {"name": "TOX (other)", "chain": "MDVRFYPPPAQPAAAPAAPCLGPSPCLDPYYCNKFDGENMYMSMTEPSQDYVPASQSYPGPSLESEDFNIPPITPPSLPDHSLVHLNEVESGYHSLCHPMNHNGLLPFHPQTMDLPEITVSNMLGQDGALLSNSISVMQEIGNAEGAQYSSHPQMAAMRPRGQPTDIRQQASMMQPGQLTTINQSQLSAQLGLNMGGTNVAHNSPSPPGSKSATPSPSSSVHEDECEDASKINGGEKRPASDMGKKPKTPKKKKKKDPNEPQKPVSAYALFFRDTQAAIKGQNPNATFGEVSKIVASMWDGLGEEQKQVYKKKTEAAKKEYLKQLAAYRASLVSKSYTDPVDVKTSQPPQLVNSKPSVFHGPSQAHSALYLSSHYHQQPGMTPQLTAMHPSLPRNIAPKPNNQMPVTVSIANMAVSPPPPLQISPPLHQHLSMQQHQSLAMQQPLGSQLPMQVQTALHSPTMQQGFTLQPDYQTIINPTSTAAQVVTQAMEYVRSGCRNPPPQPVDWSTDYCSSGGMQRDKALYLT", "notes": "Bait of the immunoprecipitations (anti-TOX ab155768, Abcam); also called TOX protein"}}, "target": "histone H4 (UniProt P62806 2-103)", "test": "IP with anti-TOX from EL4 lysate, Western blot (FIG. 60L)", "data": [{"binder": "B1", "values": [{"measurement": "binding result", "value": "binds"}]}]}
